Experimental findings from publication PMC3866644 (RNA, 2014) are described below.

Test in all cases: pull-down
Test [1] deals with T1, His6 fusion Prp28 (yeast, UniProt P23394 1-588).
T1 sequence: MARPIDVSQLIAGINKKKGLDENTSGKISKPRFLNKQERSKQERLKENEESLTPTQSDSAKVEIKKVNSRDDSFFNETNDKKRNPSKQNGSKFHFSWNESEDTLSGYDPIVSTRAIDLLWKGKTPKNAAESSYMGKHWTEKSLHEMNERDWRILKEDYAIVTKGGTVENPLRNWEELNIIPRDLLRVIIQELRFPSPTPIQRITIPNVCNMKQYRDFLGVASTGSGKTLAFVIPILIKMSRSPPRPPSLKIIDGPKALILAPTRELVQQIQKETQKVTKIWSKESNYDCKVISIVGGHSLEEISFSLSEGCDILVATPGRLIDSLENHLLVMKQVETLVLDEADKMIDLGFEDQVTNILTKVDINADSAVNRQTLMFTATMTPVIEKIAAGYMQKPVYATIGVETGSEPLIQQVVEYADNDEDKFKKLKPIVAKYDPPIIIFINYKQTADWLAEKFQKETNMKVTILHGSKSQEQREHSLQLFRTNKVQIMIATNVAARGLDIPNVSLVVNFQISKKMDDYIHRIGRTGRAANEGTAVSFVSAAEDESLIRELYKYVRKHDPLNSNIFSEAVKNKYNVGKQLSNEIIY

Test [2] concerns the target T2, His6 fusion Prp39, full-length (yeast, UniProt P39682 1-629).
T2 sequence: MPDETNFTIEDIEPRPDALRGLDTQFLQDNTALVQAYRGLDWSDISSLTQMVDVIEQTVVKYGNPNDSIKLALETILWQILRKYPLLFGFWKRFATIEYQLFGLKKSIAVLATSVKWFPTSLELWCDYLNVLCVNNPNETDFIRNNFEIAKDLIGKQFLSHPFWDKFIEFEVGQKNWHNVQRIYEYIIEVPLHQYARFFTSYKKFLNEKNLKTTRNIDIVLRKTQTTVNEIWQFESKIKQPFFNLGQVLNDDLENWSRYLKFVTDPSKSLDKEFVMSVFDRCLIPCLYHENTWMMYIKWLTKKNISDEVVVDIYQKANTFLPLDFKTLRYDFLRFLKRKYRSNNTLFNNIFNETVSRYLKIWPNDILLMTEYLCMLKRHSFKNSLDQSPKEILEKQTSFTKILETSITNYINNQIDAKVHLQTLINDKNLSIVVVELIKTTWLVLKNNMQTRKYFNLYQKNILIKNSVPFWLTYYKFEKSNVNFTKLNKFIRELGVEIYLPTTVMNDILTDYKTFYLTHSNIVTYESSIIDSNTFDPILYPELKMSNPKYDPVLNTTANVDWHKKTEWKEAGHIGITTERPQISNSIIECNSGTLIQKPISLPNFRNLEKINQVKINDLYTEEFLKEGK

Test [3] concerns the target T3, His6 fusion Prp40, full-length (yeast, UniProt P33203 1-583).
T3 sequence: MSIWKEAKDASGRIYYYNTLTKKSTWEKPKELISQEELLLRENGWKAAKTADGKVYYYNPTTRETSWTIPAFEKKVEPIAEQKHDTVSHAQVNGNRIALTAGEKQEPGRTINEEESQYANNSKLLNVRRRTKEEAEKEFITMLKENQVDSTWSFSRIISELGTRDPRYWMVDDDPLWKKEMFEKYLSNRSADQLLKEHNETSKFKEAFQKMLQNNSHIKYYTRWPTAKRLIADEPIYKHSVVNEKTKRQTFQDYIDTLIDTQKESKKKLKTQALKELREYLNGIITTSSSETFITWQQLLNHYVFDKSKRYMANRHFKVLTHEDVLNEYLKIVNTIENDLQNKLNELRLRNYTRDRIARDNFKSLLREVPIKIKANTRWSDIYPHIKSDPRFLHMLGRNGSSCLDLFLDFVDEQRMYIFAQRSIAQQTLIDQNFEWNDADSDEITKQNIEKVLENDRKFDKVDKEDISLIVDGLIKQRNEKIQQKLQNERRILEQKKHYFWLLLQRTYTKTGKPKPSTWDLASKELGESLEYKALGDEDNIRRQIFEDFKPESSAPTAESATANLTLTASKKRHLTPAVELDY

Substitutions are numbered along the chain they refer to. In names and notes the source's numbering stands.

B1: GST-fusion Prp8-NTD (Prp8 residues 1-330), wild-type sequence (domain or fragment)
chain: not shown
As to B1, the binding result in test [1], in test [2] and in test [3] was “binds” throughout.

B2: GST-fusion Prp8-NTD(P263L/W279G) (domain or fragment)
chain: MSGLPPPPPGFEEDSDLALPPPPPPPPGYEIEELDNPMVPSSVNEDTFLPPPPPPPSNFEINAEEIVDFTLPPPPPPPGLDELETKAEKKVELHGKRKLDIGKDTFVTRKSRKRAKKMTKKAKRSNLYTPKAEMPPEHLRKIINTHSDMASKMYNTDKKAFLGALKYLPHAILKLLENMPHPWEQAKEVKVLYHTSGAITFVNETPRVIEPVYTAQWSATWIAMRREKRDRTHFKRMRFPPFDDDEPPLSYEQHIENIEPLDLINLPLDSQDDEYVKDGLYDSRPLEEDSKKVNGTSYKKWSFDLPEMSNLYRLSTPLRDEVTDKNYYYL
Take B2: the binding result in test [2] and in test [3] was “binds” throughout.

B3: GST-fusion Prp8-NTD(D273G) (domain or fragment)
chain: B2 chain with L263P, D273G, G279W
On to B3, for which the binding result in test [2] and in test [3] was “binds” throughout.

B4: GST-fusion Prp8-NTD(R226G) (domain or fragment)
chain: B2 chain with R226G, L263P, G279W
For B4, the binding result in test [2] and in test [3] was “binds” each time.
